Test results reported in the supplement of paper PMC10567573.

B1: KCNG1 (parent)
chain: LFVTVTAVNLSVSTLPSLREEEEQ
B2: SNAP91 (parent)
chain: FGGSFMAPSPSPVTPAQNNLLQPN

Variants of: B1
Test: protein stability index of a GFP-peptide fusion (GPS, HEK-293T) (PSI 1-6); higher = more stable
Conditions: c terminus: a fixed tail appended
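Further: lentivirally expressed fusions sorted by FACS into six bins by GFP to DsRed ratio, PSI derived from sequencing read proportions per bin multiplied by bin number.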

Row | Variant | protein stability index
1 | LLVTVTAVNLSVSTLPSLREEEEQ [F2L] | 1.95
2 | LQVTVTAVNLSVSTLPSLREEEEQ [F2Q] | 2.09
3 | LGVTVTAVNLSVSTLPSLREEEEQ [F2G] | 2.41
4 | LNVTVTAVNLSVSTLPSLREEEEQ [F2N] | 2.27
5 | LKVTVTAVNLSVSTLPSLREEEEQ [F2K] | 1.72
6 | LFVTVTAVNLSVSTLPSLREETEQ [E22T] | 2.14
7 | LFVTVTAVNLSVSTLPSLREEMEQ [E22M] | 3.4
8 | LFVTVTAVNLSVSTLPSLREEHEQ [E22H] | 1.61
9 | LFVTVTAVNLSVSTLPSLREEKEQ [E22K] | 3.13
10 | LFVTVTAVNLSVSTLPSLREEIEQ [E22I] | 2.19
11 | SFVTVTAVNLSVSTLPSLREEEEQ [L1S] | 3.56
12 | AFVTVTAVNLSVSTLPSLREEEEQ [L1A] | 1.78
13 | DFVTVTAVNLSVSTLPSLREEEEQ [L1D] | 4.52
14 | IFVTVTAVNLSVSTLPSLREEEEQ [L1I] | 2.27
15 | KFVTVTAVNLSVSTLPSLREEEEQ [L1K] | 3.84
16 | CFVTVTAVNLSVSTLPSLREEEEQ [L1C] | 2.1
17 | RFVTVTAVNLSVSTLPSLREEEEQ [L1R] | 3.04
18 | HFVTVTAVNLSVSTLPSLREEEEQ [L1H] | 3.62
19 | MFVTVTAVNLSVSTLPSLREEEEQ [L1M] | 1.98
20 | QFVTVTAVNLSVSTLPSLREEEEQ [L1Q] | 3.71

Row | Variant | protein stability index
21 | NFVTVTAVNLSVSTLPSLREEEEQ [L1N] | 4.05
22 | FFVTVTAVNLSVSTLPSLREEEEQ [L1F] | 1.95
23 | GFVTVTAVNLSVSTLPSLREEEEQ [L1G] | 3.23
24 | LFVTVTAVNLSVSTDPSLREEEEQ [L15D] | 3.09
25 | LFVTVTAVNLSVSTVPSLREEEEQ [L15V] | 1.76
26 | LFVTVTAVNLSVSTPPSLREEEEQ [L15P] | 2.48
27 | LFVTVTAVNLSVSTTPSLREEEEQ [L15T] | 3.77
28 | LFVTVTAVNLSVSTCPSLREEEEQ [L15C] | 2.81
29 | LFVTVTAVNLSVSTGPSLREEEEQ [L15G] | 1.72
30 | LFVTVTAVNLSVSTLPSLREEEEK [Q24K] | 1.74
31 | LFVTVTAVNLSVSTLPSLREEEES [Q24S] | 2.44
32 | LFVTVTAVNLSVSTLPSLREEEED [Q24D] | 2.28
33 | LFVTVTAVNLSVSTLPSLREEEEE [Q24E] | 1.37
34 | LFVTVTAVNLSVSTLPSLREPEEQ [E21P] | 2.06
35 | LFVTVTAVNLSVSTLPSLREREEQ [E21R] | 2.43
36 | LFVTVTAVNLSVSTLPSLREVEEQ [E21V] | 1.63
37 | LFVTVTAVNLSVSTLPSLREKEEQ [E21K] | 2.25
38 | LFVTVTAVNLSVSTLPSLRENEEQ [E21N] | 3.49
39 | LFNTVTAVNLSVSTLPSLREEEEQ [V3N] | 4.51
40 | LFRTVTAVNLSVSTLPSLREEEEQ [V3R] | 4.5

Row | Variant | protein stability index
41 | LFYTVTAVNLSVSTLPSLREEEEQ [V3Y] | 1.92
42 | LFSTVTAVNLSVSTLPSLREEEEQ [V3S] | 4.05
43 | LFGTVTAVNLSVSTLPSLREEEEQ [V3G] | 3.53
44 | LFETVTAVNLSVSTLPSLREEEEQ [V3E] | 4.93
45 | LFHTVTAVNLSVSTLPSLREEEEQ [V3H] | 3.75
46 | LFVTVTAVNLSVSTLPFLREEEEQ [S17F] | 1.79
47 | LFVTVTAVNLSVSTLPPLREEEEQ [S17P] | 2.55
48 | LFVTVTAVNLSVSTLPALREEEEQ [S17A] | 1.55
49 | LFVTVTAVNLSVSTLPHLREEEEQ [S17H] | 1.26
50 | LFVTVTAVNLSVSTLPKLREEEEQ [S17K] | 4.4
51 | LFVTVTAVNLSVSTLPTLREEEEQ [S17T] | 2.22
52 | LFVTVTAVNLSVSTLPGLREEEEQ [S17G] | 2.51
53 | LFVTVTAVNLSVSTLPELREEEEQ [S17E] | 3.27
54 | LFVTVTAVNLSVSTLPNLREEEEQ [S17N] | 1.7
55 | LFVTVTAVNLSVSKLPSLREEEEQ [T14K] | 1.77
56 | LFVTVTAVNLSVSDLPSLREEEEQ [T14D] | 1.52
57 | LFVTVTAVNLSVSHLPSLREEEEQ [T14H] | 2.56
58 | LFVTVTAVNLSVSYLPSLREEEEQ [T14Y] | 2.34
59 | LFVTVTAVNLSVSRLPSLREEEEQ [T14R] | 4.33
60 | LFVTVTAVNLSVSPLPSLREEEEQ [T14P] | 2.61

Variants of: B2
Test: as above
Conditions: c terminus: a fixed tail appended

Row | Variant | protein stability index
61 | FGGSFMAYSPSPVTPAQNNLLQPN [P8Y] | 3.9
62 | FGGSFMAASPSPVTPAQNNLLQPN [P8A] | 1.54
63 | FGGSFMAWSPSPVTPAQNNLLQPN [P8W] | 3.12
64 | FGGSFMADSPSPVTPAQNNLLQPN [P8D] | 2.25
65 | FGGSFMAFSPSPVTPAQNNLLQPN [P8F] | 2.53
66 | FGGSFMAMSPSPVTPAQNNLLQPN [P8M] | 4.32
67 | FYGSFMAPSPSPVTPAQNNLLQPN [G2Y] | 2.53
68 | FGGSFMAPEPSPVTPAQNNLLQPN [S9E] | 1.89
69 | FGGSFMAPKPSPVTPAQNNLLQPN [S9K] | 1.76
70 | FGGSFMAPSPSMVTPAQNNLLQPN [P12M] | 2.62
71 | FGGSFMAPSPSFVTPAQNNLLQPN [P12F] | 1.62
72 | FGGSFMAPSPSLVTPAQNNLLQPN [P12L] | 1.61
73 | FGGSFMAPSPSYVTPAQNNLLQPN [P12Y] | 2.09
74 | FGGSFMAPSPSDVTPAQNNLLQPN [P12D] | 1.8
75 | FGGSFMAPSPSPVTTAQNNLLQPN [P15T] | 2.01
76 | FGGSFMAPSPSPVTSAQNNLLQPN [P15S] | 2.19
77 | FGGSFMAPSPSPVTNAQNNLLQPN [P15N] | 1.79

Row | Variant | protein stability index
78 | FGGSFMAPSPSPVTQAQNNLLQPN [P15Q] | 2.27
79 | FGGSFMAPSMSPVTPAQNNLLQPN [P10M] | 3.19
80 | FGGSFMAPSRSPVTPAQNNLLQPN [P10R] | 1.13
81 | FGGSFMAPSHSPVTPAQNNLLQPN [P10H] | 2.52
82 | FGGSFMAPSVSPVTPAQNNLLQPN [P10V] | 1.58
83 | FGGSFMAPSWSPVTPAQNNLLQPN [P10W] | 2.51
84 | NGGSFMAPSPSPVTPAQNNLLQPN [F1N] | 3.94
85 | FGGSFMAPSPSPVEPAQNNLLQPN [T14E] | 1.31
86 | FGGSFMAPSPSPVFPAQNNLLQPN [T14F] | 1.79
87 | FGGSFMAPSPSPVCPAQNNLLQPN [T14C] | 4.16
88 | FGGSFMAPSPSPVQPAQNNLLQPN [T14Q] | 2.43
89 | FGGSFMAPSPSPVGPAQNNLLQPN [T14G] | 2.08
90 | FGGSFMAPSPSPVVPAQNNLLQPN [T14V] | 2.2
91 | FGGSFRAPSPSPVTPAQNNLLQPN [M6R] | 2.24
92 | FGGSFMAPSPLPVTPAQNNLLQPN [S11L] | 2.84
93 | FGGSIMAPSPSPVTPAQNNLLQPN [F5I] | 4.03
94 | FGGSFMAPSPSPVTPAQNNLRQPN [L21R] | 2.88
